{"source": "the RNAGym collection of RNA variant scans (doi:10.7554/elife.90254)", "parents": {"B1": {"name": "LINE1-full (parent)", "chain": "UACGUAGGUGGUUUUCCCCUGAUAGUGCUAAGGGGGCCUGGAAGUUUGGACUGGGCAGAGCUCAACACAGCGUGGCAAAGUGGCUGUGGCUAGACUGCCUCUCUGGAUUCCUCGUCACUCAGCAGGGCAUCUCUGAGAGAAAUGCC"}}}
{"variants_of": "B1", "assay": "self-cleavage, relative activity (ratio to wild type); higher = more cleavage; in vitro, sequencing; the parent is a self-cleaving ribozyme"}
{"variant": "A140C U143C", "self-cleavage": 1.81}
{"variant": "U20C A57U", "self-cleavage": 0.07}
{"variant": "G80U U100C", "self-cleavage": 1.02}
{"variant": "U96A G137A", "self-cleavage": 0.12}
{"variant": "A65U A124U", "self-cleavage": 0.18}
{"variant": "A77U A107G", "self-cleavage": 1.29}
{"variant": "U9A G93A", "self-cleavage": 0.06}
{"variant": "U62C U143G", "self-cleavage": 0.08}
{"variant": "C101U U102C", "self-cleavage": 1.49}
{"variant": "U5A C90G", "self-cleavage": 0.09}
{"variant": "A78G C133U", "self-cleavage": 1.27}
{"variant": "U46C C56A", "self-cleavage": 0.28}
{"variant": "U29C A121C", "self-cleavage": 1.93}
{"variant": "A24C U91A", "self-cleavage": 0.57}
{"variant": "A59G U134C", "self-cleavage": 0.15}
{"variant": "U85C A94U", "self-cleavage": 0.14}
{"variant": "G58A C71U", "self-cleavage": 0.03}
{"variant": "U52A A129U", "self-cleavage": 1.73}
{"variant": "U47C G114A", "self-cleavage": 1.66}
{"variant": "U12C A42U", "self-cleavage": 1}
{"variant": "U52C U81C", "self-cleavage": 1.08}
{"variant": "A77U G83A", "self-cleavage": 0.74}
{"variant": "U85A C116U", "self-cleavage": 0.11}
{"variant": "G4A U9C", "self-cleavage": 0.69}
{"variant": "U14C G127U", "self-cleavage": 1.73}
{"variant": "U14C G127A", "self-cleavage": 1}
{"variant": "U119C A129U", "self-cleavage": 1.82}
{"variant": "U12C C98U", "self-cleavage": 0.26}
{"variant": "A43U U109C", "self-cleavage": 1.32}
{"variant": "A22U G106A", "self-cleavage": 1.55}
{"variant": "U52C A107G", "self-cleavage": 1}
{"variant": "U9A A24U", "self-cleavage": 1.01}
{"variant": "U23C G114C", "self-cleavage": 2.07}
{"variant": "A24G U102G", "self-cleavage": 0.54}
{"variant": "A136G C146U", "self-cleavage": 1.91}
{"variant": "U1C A42G", "self-cleavage": 0.92}
{"variant": "C71U U100C", "self-cleavage": 1.31}
{"variant": "C28U A141U", "self-cleavage": 0.54}
{"variant": "U87C U91A", "self-cleavage": 0.2}
{"variant": "A22G C145U", "self-cleavage": 0.97}
{"variant": "G58A A140G", "self-cleavage": 0.04}
{"variant": "A24G A59G", "self-cleavage": 0.21}
{"variant": "U46C U130C", "self-cleavage": 1.54}
{"variant": "A117G", "self-cleavage": 1.49}
{"variant": "G93A C101A", "self-cleavage": 0.04}
{"variant": "A77U A141U", "self-cleavage": 1.07}
{"variant": "G35A A65G", "self-cleavage": 0.05}
{"variant": "G58U U62A", "self-cleavage": 0.02}
{"variant": "A64C U143A", "self-cleavage": 0.25}
{"variant": "A2C A138G", "self-cleavage": 2.07}
{"variant": "A57G C63U", "self-cleavage": 0.17}
{"variant": "G82U A141G", "self-cleavage": 1.54}
{"variant": "A138G A142C", "self-cleavage": 0.16}
{"variant": "A24U C37G", "self-cleavage": 0.82}
{"variant": "U46A A69G", "self-cleavage": 0.36}
{"variant": "A2G C118G", "self-cleavage": 1.04}
{"variant": "U15C G127U", "self-cleavage": 1.23}
{"variant": "G106A G127U", "self-cleavage": 1.49}
{"variant": "A31U U130C", "self-cleavage": 1.23}
{"variant": "U5A G44A", "self-cleavage": 0.81}
{"variant": "U15C A92U", "self-cleavage": 0.79}
{"variant": "A78G U115A", "self-cleavage": 1.12}
{"variant": "G58U U81C", "self-cleavage": 0.05}
{"variant": "U73C U81C", "self-cleavage": 1.47}
{"variant": "C95U U115C", "self-cleavage": 0.54}
{"variant": "G80C U108C", "self-cleavage": 0}
{"variant": "G49A A129G", "self-cleavage": 1.69}
{"variant": "U13C U73G", "self-cleavage": 0.91}
{"variant": "G48A U134A", "self-cleavage": 0.83}
{"variant": "A57U A138U", "self-cleavage": 0.12}
{"variant": "G75U U109C", "self-cleavage": 0.7}
{"variant": "A2G C76U", "self-cleavage": 1.17}
{"variant": "A50G C66A", "self-cleavage": 0.06}
{"variant": "U12G C98U", "self-cleavage": 0.41}
{"variant": "A78G A129G", "self-cleavage": 1.65}
{"variant": "U47C C111A", "self-cleavage": 1.79}
{"variant": "A65G U108A", "self-cleavage": 0.04}
{"variant": "U29A U45C", "self-cleavage": 0.96}
{"variant": "A67C C71A", "self-cleavage": 0.02}
{"variant": "A30U A31U", "self-cleavage": 1.3}
{"variant": "C123A U134C", "self-cleavage": 1.04}
{"variant": "U13A U132C", "self-cleavage": 0.98}
{"variant": "U26A U119G", "self-cleavage": 1.45}
{"variant": "A50G A107U", "self-cleavage": 1.24}
{"variant": "A69U A94U", "self-cleavage": 0.05}
{"variant": "A124G C128A", "self-cleavage": 0.46}
{"variant": "A78U U112C", "self-cleavage": 1.91}
{"variant": "G54U U143C", "self-cleavage": 1.07}
{"variant": "A64G U102C", "self-cleavage": 0.34}
{"variant": "U47A A50U", "self-cleavage": 0.87}
{"variant": "U20G G127A", "self-cleavage": 1.37}
{"variant": "U104A A107U", "self-cleavage": 1.31}
{"variant": "U45G C68U", "self-cleavage": 0.12}
{"variant": "U26G G60C", "self-cleavage": 0.07}
{"variant": "U29C A124C", "self-cleavage": 1.23}
{"variant": "G97U A140G", "self-cleavage": 0.07}
{"variant": "U52A U81G", "self-cleavage": 1.63}
{"variant": "C63U U104C", "self-cleavage": 0.1}
{"variant": "C111U U115C", "self-cleavage": 1.55}
{"variant": "U87C C98U", "self-cleavage": 0.02}
{"variant": "A24G", "self-cleavage": 1.17}
{"variant": "G93A G105U", "self-cleavage": 0.02}
{"variant": "C113U A121G", "self-cleavage": 0.68}
{"variant": "U13C A117U", "self-cleavage": 1.07}
{"variant": "G34C A124U", "self-cleavage": 1.91}
{"variant": "G86A U115A", "self-cleavage": 0.01}
{"variant": "U13A C63U", "self-cleavage": 0.35}
{"variant": "G70C A77U", "self-cleavage": 0.09}
{"variant": "A22G G80A", "self-cleavage": 2.37}
{"variant": "A22G C51A", "self-cleavage": 0.4}
{"variant": "A24G A65C", "self-cleavage": 0.16}
{"variant": "A42G C98U", "self-cleavage": 0.53}
{"variant": "A6G G139U", "self-cleavage": 0.96}
{"variant": "U45C C66U", "self-cleavage": 0.04}
{"variant": "C19A A107G", "self-cleavage": 1}
{"variant": "U45C A59U", "self-cleavage": 1.04}
{"variant": "U26C U29A", "self-cleavage": 1.35}
{"variant": "A65G A121U", "self-cleavage": 0.04}
{"variant": "U119A A141U", "self-cleavage": 1.29}
{"variant": "U12C A67C", "self-cleavage": 0.09}
{"variant": "G106A U143C", "self-cleavage": 1.51}
{"variant": "A121C A129G", "self-cleavage": 1.23}
{"variant": "C16A A141G", "self-cleavage": 1.35}
{"variant": "A24G U112A", "self-cleavage": 1.51}
{"variant": "U13C A142U", "self-cleavage": 1.09}
{"variant": "A79U A94U", "self-cleavage": 0.25}
{"variant": "A94G C99U", "self-cleavage": 0.19}
{"variant": "U109A C131A", "self-cleavage": 1.59}
{"variant": "G10A A59G", "self-cleavage": 0.17}
{"variant": "U104A G106A", "self-cleavage": 0.84}
{"variant": "A6G C66U", "self-cleavage": 0.15}
{"variant": "A31U A50G", "self-cleavage": 0.16}
{"variant": "C76U U85C", "self-cleavage": 0.36}
{"variant": "A42G C68U", "self-cleavage": 0.18}
{"variant": "G105U A107C", "self-cleavage": 2.34}
{"variant": "U73C A124U", "self-cleavage": 1.5}
{"variant": "A59G", "self-cleavage": 0.09}
{"variant": "C71U", "self-cleavage": 0.86}
{"variant": "A50U A129G", "self-cleavage": 0.83}
{"variant": "G36A A77G", "self-cleavage": 1.35}
{"variant": "C37U U119A", "self-cleavage": 0.99}
{"variant": "A43U U115C", "self-cleavage": 1.21}
{"variant": "U23C U45G", "self-cleavage": 1.02}
{"variant": "G89C G144A", "self-cleavage": 0.05}
{"variant": "A2U A64U", "self-cleavage": 0.37}
{"variant": "U29C G127C", "self-cleavage": 1.58}
{"variant": "U15A C101G", "self-cleavage": 0.84}
{"variant": "U47A C99U", "self-cleavage": 0.3}
{"variant": "U20C A59U", "self-cleavage": 0.82}
{"variant": "C101U", "self-cleavage": 1.39}
{"variant": "U62C U112A", "self-cleavage": 0.05}
{"variant": "G75C A138G", "self-cleavage": 1.01}
{"variant": "U1A A136G", "self-cleavage": 1.71}
{"variant": "C76U A117G", "self-cleavage": 2.24}
{"variant": "U20A U45A", "self-cleavage": 1.05}
{"variant": "U47A A107G", "self-cleavage": 0.95}
{"variant": "U9A G114C", "self-cleavage": 0.61}
{"variant": "U13A U46A", "self-cleavage": 1.21}
{"variant": "U12C G33U", "self-cleavage": 1.36}
{"variant": "C103U U115C", "self-cleavage": 1.51}
{"variant": "C3U U20G", "self-cleavage": 0.53}
{"variant": "U39C U130C", "self-cleavage": 2.49}
{"variant": "U45G A77U", "self-cleavage": 1.15}
{"variant": "A24U A64G", "self-cleavage": 0.23}
{"variant": "U39A C128G", "self-cleavage": 1.62}
{"variant": "U29C A42G", "self-cleavage": 1.66}
{"variant": "U104A U108A", "self-cleavage": 1}
